Data on 5 molecules can be found in PMC2278140, “Regulation of the cd38 promoter in human airway smooth muscle cells by TNF-α and dexamethasone”.

Common to all, as to conditions: protein: commercial; chain copies: 2; label: 32P 5' end; blunt
Data set [1] concerns the target T1, glucocorticoid receptor (GR) (human, UniProt P04150 1-777). As to the kind of experiment: competition; excess unlabeled vs labeled GRE consensus; 20% glycerol, 5 mM MgCl2, 2.5 mM EDTA, 2.5 mM DTT, 250 mM NaCl, 50 mM Tris-HCl pH 7.5, 0.25 mg/ml poly(dI-dC), room temperature 30 min; 0.4 pmol probe in 10 μl, 5 μg extract or 1 μg GR.
The target of data set [2] is T1, glucocorticoid receptor (GR). As to the kind of experiment: EMSA; 20% glycerol, 5 mM MgCl2, 2.5 mM EDTA, 2.5 mM DTT, 250 mM NaCl, 50 mM Tris-HCl pH 7.5, 0.25 mg/ml poly(dI-dC), room temperature 30 min; 0.4 pmol probe in 10 μl, 5 μg extract or 1 μg GR. Background: A gel shift assay detects complexes by their altered migration in electrophoresis.
For data set [3] the target is unchanged. Put plainly: EMSA; anti-GR supershift; 20% glycerol, 5 mM MgCl2, 2.5 mM EDTA, 2.5 mM DTT, 250 mM NaCl, 50 mM Tris-HCl pH 7.5, 0.25 mg/ml poly(dI-dC), room temperature 30 min; 0.4 pmol probe in 10 μl, 5 μg extract or 1 μg GR.
The target is the same in data set [4]. As to the kind of experiment: competition; excess unlabeled self vs labeled GRE4; 20% glycerol, 5 mM MgCl2, 2.5 mM EDTA, 2.5 mM DTT, 250 mM NaCl, 50 mM Tris-HCl pH 7.5, 0.25 mg/ml poly(dI-dC), room temperature 30 min; 0.4 pmol probe in 10 μl, 5 μg extract or 1 μg GR.
Data set [5] has the same target. Put plainly: competition; excess unlabeled self vs labeled GRE3; 20% glycerol, 5 mM MgCl2, 2.5 mM EDTA, 2.5 mM DTT, 250 mM NaCl, 50 mM Tris-HCl pH 7.5, 0.25 mg/ml poly(dI-dC), room temperature 30 min; 0.4 pmol probe in 10 μl, 5 μg extract or 1 μg GR.

T1 sequence (P04150 whole entry): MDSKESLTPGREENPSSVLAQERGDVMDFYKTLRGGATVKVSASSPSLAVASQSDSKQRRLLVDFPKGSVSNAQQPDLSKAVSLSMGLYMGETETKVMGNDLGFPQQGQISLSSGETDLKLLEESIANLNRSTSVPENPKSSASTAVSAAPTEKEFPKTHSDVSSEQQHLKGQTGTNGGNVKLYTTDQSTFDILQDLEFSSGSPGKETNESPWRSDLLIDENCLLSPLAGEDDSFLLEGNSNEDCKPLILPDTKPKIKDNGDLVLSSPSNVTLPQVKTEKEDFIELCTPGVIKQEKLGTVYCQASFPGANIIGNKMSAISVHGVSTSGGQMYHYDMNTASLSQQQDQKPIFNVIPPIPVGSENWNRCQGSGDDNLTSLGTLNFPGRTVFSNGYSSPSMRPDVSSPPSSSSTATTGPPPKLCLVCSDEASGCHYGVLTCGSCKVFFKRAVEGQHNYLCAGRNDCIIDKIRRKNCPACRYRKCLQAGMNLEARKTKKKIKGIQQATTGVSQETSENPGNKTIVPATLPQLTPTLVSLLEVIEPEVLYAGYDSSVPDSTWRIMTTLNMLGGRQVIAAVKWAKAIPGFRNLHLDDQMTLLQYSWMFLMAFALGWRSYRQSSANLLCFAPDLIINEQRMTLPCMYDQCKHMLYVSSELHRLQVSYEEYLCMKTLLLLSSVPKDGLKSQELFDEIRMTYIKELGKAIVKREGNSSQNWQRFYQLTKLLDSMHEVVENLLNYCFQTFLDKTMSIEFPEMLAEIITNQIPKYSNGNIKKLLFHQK

B1: GRE2 (dsDNA)
DNA 1: TTCCGAACTTCTGTTCTGTTTCCCTCAA
DNA 2: TTGAGGGAAACAGAACAGAAGTTCGGAA
For the molecule B1, the binding result in data set [1] is “no binding”.

B2: GRE1 (dsDNA)
DNA 1: AATGTCACAGATGTTCTCTTAATAAAGA
DNA 2: TCTTTATTAAGAGAACATCTGTGACATT
With B2, the binding result in data set [2] is “binds”.

B3: GRE consensus (dsDNA)
DNA 1: TAGAGGATCTGTACAGGATGTTCTAGAT
DNA 2: ATCTAGAACATCCTGTACAGATCCTCTA
As to B3, in data set [3], the binding result is “binds”.

B4: GRE4 (dsDNA)
DNA 1: GCCATTGTAACTGTTCTCCATCCTTATC
DNA 2: GATAAGGATGGAGAACAGTTACAATGGC
As for B4, in data set [4], the binding result was “binds”.

B5: GRE3 (dsDNA)
DNA 1: AAGCACTGCCATGTTCTCACTTATAAGT
DNA 2: ACTTATAAGTGAGAACATGGCAGTGCTT
As to B5, in data set [5], the binding result is given as “binds”.
